# Results reported in US20190292256A1, “Compounds and Methods to Measure Metabolic Function and Restore Normal Metabolic Function” (priority 2010, published 2019).
# B1: Sfrp5: secreted frizzled-related protein 5, here overexpressed in adipocytes by AdTRE-Sfrp5 transduction (protein, UniProt Q9WU66 22-314, looked up)
# Secreted frizzled-related …: APTRGQEYDYYGWQAEPLHGRSYSKPPQCLDIPADLPLCHTVGYKRMRLPNLLEHESLAEVKQQASSWLPLLAKRCHSDTQVFLCSLFAPVCLDRPIYPCRSLCEAARAGCAPLMEAYGFPWPEMLHCHKFPLDNDLCIAVQFGHLPATAPPVTKICAQCEMEHSADGLMEQMCSSDFVVKMRIKEIKIDNGDRKLIGAQKKKKLLKAGPLKRKDTKKLVLHMKNGASCPCPQLDNLTGSFLVMGRKVEGQLLLTAVYRWDKKNKEMKFAVKFMFSYPCSLYYPFFYGAAEPH
# B2: Wnt5a: recombinant mouse Wnt5a protein produced in CHO cells, purchased from R&D Systems (protein)
# chain: IIGAQPLCSQLAGLSQGQKKLCHLYQDHMQYIGEGAKTGIKECQYQFRHRRWNCSTVDNTSVFGRVMQIGSRETAFTYAVSAAGVVNAMSRACREGELSTCGCSRAARPKDLPRDWLWGGCGDNIDYGYRFAKEFVDARERERIHAKGSYESARILMNLHNNEAGRRTVYNLADVACKCHGVSGSCSLKTCWLQLADFRKVGDALKEKYDSAAAMRLNSRGKLVQVNSRFNSPTTQDLVYIDPSPDYCVRNESTGSLGTQGRLCNKTSEGMDGCELMCCGRGYDQFKTVQTERCHCKFHWCCYVKCKKCTEIVDQFVCK
# Tests used:
# Format in all cases: cell-based, mouse
# 3T3-L1 adipocytes = test: Sfrp5 and adiponectin transcript expression in 3T3-L1 adipocytes treated with stress agents (QRT-PCR); settings: differentiated 3T3-L1 adipocytes, 24 h; TNFα 10 ng/ml, H2O2 0.2 mM, tunicamycin 5 μg/ml
# Procedure: (§1) Mouse 3T3-L1 cells (ATCC) were maintained in DMEM with 10% fetal bovine serum (FBS) and differentiated into adipocytes by treatment with DMEM supplemented with 5 μg/ml of insulin, 0.5 mM 1-methyl-3-isobutyl-xanthin, and 1 μM dexamethazone. At day 7 after differentiation, 3T3-L1 adipocytes were treated with tunicamycin, H2O2, TNFα or vehicle for 24 h. Peritoneal macrophages from lean WT C57BL/6 mice were maintained in DMEM supplemented 10% FBS and placed in DMEM with 0.5% FBS for 16 h for serum starvation. Macrophages were incubated in the conditioned media from 3T3-L1 adipocytes transduced with adenoviral vectors in the presence of Wnt5a protein (200 ng/ml) or vehicle for 24 h. In some experiments, cells were pretreated with SP600125 (15 μM) or vehicle for 1 h followed by treatment with Wnt5a protein.
# (§2) Epididymal fat pads from male wild-type C57BL/6 mice fed a normal diet were excised, minced in PBS and digested with 1 mg/ml collagenase Type 1 (Worthington Chemical Corporation) at 37° C. for 30 min. The digested fat tissue was filtered through a mesh and centrifuged at 1000 rpm for 5 min to separate floating adipocytes from the SV fraction. Measurement of mRNA Levels Gene expression level was quantified by real-time PCR. Total RNA was prepared with the use of a Qiagen kit. cDNA was produced using ThermoScript RT-PCR Systems (Invitrogen). PCR was performed on iCycler iQ Real-Time PCR Detection System (Bio-Rad) using SYBR Green 1 as a double standard DNA specific dye (Applied Biosystems).
# [1] = test system: TOPflash reporter activity (canonical Wnt signaling); test: TOPflash luciferase reporter assay in 3T3-L1 adipocytes; settings: Wnt5a 200 ng/ml 24 h, AdTRE-Sfrp5 transduction
# Procedure: 3T3-L1 adipocytes were transduced with adenoviral vectors for 24 h and co-transfected with a TOPflash (Upstate) construct and a Renilla luciferase control plasmid (pRL-SV40, Promega) to normalize for transfection efficiency. After transfection, cells were treated with Wnt5a protein (200 ng/ml) or vehicle. Cells were lysed and analyzed on a luminometer by using dual luciferase assay kit (Promega).
# [2] = test system: JNK phosphorylation in macrophages; test: Wnt5a-stimulated JNK phosphorylation in peritoneal macrophages (immunoblot); settings: in conditioned media from Ad-β-gal-treated 3T3-L1 adipocytes, 30 min
# Procedure: as §1, with “Macrophages were incubated in the conditioned media from 3T3-L1 adipocytes transduced with adenoviral vectors in the presence of Wnt5a protein (200 ng/ml) or vehicle for 24 h.” left out
# [3] = test system: phosphorylation of JNK in adipocytes; test: Wnt5a-stimulated JNK phosphorylation in 3T3-L1 adipocytes (immunoblot); settings: Wnt5a 30 min
# Procedure: as §1
# [4] = test system: TNFα and IL-6 transcript expression by macrophages; test: Wnt5a-stimulated TNFα and IL-6 transcript expression in peritoneal macrophages (QRT-PCR); settings: Wnt5a 200 ng/ml, 24 h
# Procedure: as §1
# as §2, with “PCR was performed on iCycler iQ Real-Time PCR Detection System (Bio-Rad) using SYBR Green 1 as a double standard DNA specific dye (Applied Biosystems).” left out
# [5] = test system: IL-6 expression in adipocytes; test: Wnt5a-stimulated IL-6 expression in 3T3-L1 adipocytes (QRT-PCR); settings: Wnt5a 200 ng/ml 24 h
# Procedure: as §1
# as §2, with “PCR was performed on iCycler iQ Real-Time PCR Detection System (Bio-Rad) using SYBR Green 1 as a double standard DNA specific dye (Applied Biosystems).” left out
effect on TOPflash reporter activity [1],Molecule,Sfrp5 transcript levels (3T3-L1 adipocytes),transcript level of adiponectin (3T3-L1 adipocytes),also measured
–,OO [hydrogen peroxide],significantly reduced,down-regulated,–
–,TNFα,significantly reduced,down-regulated,–
–,tunicamycin,significantly reduced,down-regulated,–
neither Sfrp5 nor Wnt5a had an effect,B1,–,–,–
neither Sfrp5 nor Wnt5a had an effect,B2,–,–,JNK phosphorylation in macrophages [2]: stimulated; phosphorylation of JNK in adipocytes [3]: stimulatory effects; IL-6 transcript expression by macrophages [4]: increased; TNFα transcript expression by macrophages [4]: increased; IL-6 expression in adipocytes [5]: stimulatory effects
